Measurements taken from article PMC4243253.

System: N[C@@H](CC(=O)c1ccccc1NC=O)C(=O)O
Assay: purified protein
Details: pH 7.4; 25.0 °C

Work on BaKynB (Bacillus anthracis) yielded a Km of 400 ± 50 µM, a Vmax of 0.0654 µmol/min and a kcat/Km of 126000 M⁻¹ s⁻¹.
